In patent US20260092115A1 (Chugai, published 2026):
Positions count from the first letter of the chain named.

B1: 04H1637-G1m/04L1610-lam1 (antibody, human IgG1, lambda)
heavy: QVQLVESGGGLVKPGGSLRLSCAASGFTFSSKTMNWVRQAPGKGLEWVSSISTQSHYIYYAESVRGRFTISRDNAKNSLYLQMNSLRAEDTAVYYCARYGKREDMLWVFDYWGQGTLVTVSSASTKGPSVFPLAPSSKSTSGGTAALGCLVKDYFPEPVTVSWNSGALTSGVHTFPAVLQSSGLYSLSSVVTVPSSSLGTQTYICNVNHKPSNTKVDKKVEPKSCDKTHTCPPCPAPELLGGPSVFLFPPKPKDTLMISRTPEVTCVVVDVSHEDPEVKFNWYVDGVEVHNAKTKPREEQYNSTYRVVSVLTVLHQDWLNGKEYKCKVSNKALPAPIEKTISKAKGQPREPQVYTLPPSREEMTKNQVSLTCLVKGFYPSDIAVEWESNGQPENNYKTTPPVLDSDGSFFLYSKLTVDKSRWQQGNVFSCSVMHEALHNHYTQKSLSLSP
light: QSALTQPPSASGSPGQSVTISCEGPSTGVGDYNWVHWYQQHPGKAPKLMIYFTSKKPSGVPDRFSGSKSGNTASLTVSGLQAEDEADYYCQTYAAPLGPMFGGGTKLTVLGQPKAAPSVTLFPPSSEELQANKATLVCLISDFYPGAVTVAWKADSSPVKAGVETTTPSKQSNNKYAASSYLSLTPEQWKSHRSYSCQVTHEGSTVEKTVAPTECS
B2: 04H1654-KT462/04L1610-lam1//04H1656-HT445/04L1610-lam1 (antibody, human IgG1, lambda)
heavy 1: QVQLVESGGGVVQPGGSLRLSCAASGFTFSSKTMNWVRQAPGKGLEWVSSISTQSHYIYYARSVRGRFTISRDNAKNSLYLQMNSLRAEDTAVYYCARYGKREDMLWVFDYWGQGTLVTVSSASTKGPSVFPLAPSSKSTSGGTAALGCLVKDYFPEPVTVSWNSGALTSGVHTFPAVLQSSGLYSLSSVVTVPSSSLGTQTYICNVNHKPSNTKVDKRVEPKSCDKTHTCPPCPAPEFQWGPMVFLFPPKPKDVLMISRTPEVTCVVVDVSDEEPEVKFNWYVDGVEVHNAKTKPREEQYNATYRVVSVLPVLHQDWLNGKEYKCKVSNDALPAPIEKTISKAKGQPREPQVYTLPPSRKEMTKNQVSLTCLVKGFYPSDIAVEWESNGQPENNYKTTPPVLDSDGSFFLYSKLTVDKSRWQQGNVFSCSVMHEALHNHYTQKSLSLSP
heavy 2: QVQLVESGGGVVQPGGSLRLSCAASGFTFSSKTMNWVRQAPGKGLEWVSSISTQSHYIYYAESVRGRFTISRDNAKNSLYLQMNSLRAEDTAVYYCARYGAREDMLWVFDYWGQGTLVTVSSASTKGPSVFPLAPSSKSTSGGTAALGCLVKDYFPEPVTVSWNSGALTSGVHTFPAVLQSSGLYSLSSVVTVPSSSLGTQTYICNVNHKPSNTKVDKRVEPKSCDKTHTCPPCPAPELLAGPSVFLFPPKPKDVLMISRTPEVTCVVVDVSHEEPEVKFNWYVDGVEVHNAKTKPREEQYNATYRVVSVLPVLHQDWLNGKEYKCKVSNDALPKPDEETISKAKGQPREPQVYTLPPSREEMTKNQVSLTCLVKGFYPSDIAVEWESNGQPENNYKTTPPVLDSDGSFFLYSKLTVDKSRWQQGNVFSCSVMHEALHNHYTQESLSLSP
light: B1 light
notes: Heterodimerized IgG1 (IGHG1*03) Fc variant
B3: 04H1654-KT461/04L1610-lam1//04H1656-HT443/04L1610-lam1 (antibody, human IgG1, lambda)
heavy 1: B2 heavy 1 with I337E
heavy 2: B2 heavy 2 with K335A, D337E
light: B1 light
notes: as for B2
B4: 04H1637-Kn462/04L1610-lam1//04H1637-H1445/04L1610-lam1 (antibody, human IgG1, lambda)
heavy 1: B2 heavy 1 with V11L, Q13K, R62E, R219K, Y354C, K361D, M363L, T371W
heavy 2: B2 heavy 2 with V11L, Q13K, A101K, R219K, E361C, M363L, T371S, L373A, Y412V, E444K
light: B1 light
notes: Heterodimerized IgG1 Fc variant; also called 04H1637-Kn462/04L1610-lam1//04H1637-Hl445/04L1610-lam1

Experiments:
[1] = molecular target: T1, human FcγRIa extracellular domain, His-tagged (human, UniProt P12314 16-292); assay: KD of 04H1637-G1m/04L1610-lam1 divided by KD of this antibody; SPR pH 7.4
T1 construct: also called hFcγR Ia
Description: (§1) The interaction between the generated antibodies and human FcγRs was analyzed by the following method using Biacore T200. 50 mM Na-Phosphate, 150 mM NaCl, 0.05% Tween20 (pH 7.4) was used as the running buffer, and the assay was performed at 25° C. For the sensor chips, Series S SA (GE Healthcare) chips onto which CaptureSelect Human Fab-lambda Kinetics Biotin Conjugate (Thermo Fisher Scientific) was immobilized were used. The antibodies of interest were captured onto these chips and each FcγR diluted in the running buffer was allowed to interact with them. Chips were regenerated with 10 mM Glycine-HCl (pH 1.5) and 25 mM NaOH, and assay was performed by repeatedly capturing antibodies. The dissociation constants KD (mol/L) for FcγRs of each antibody were calculated using Biacore T200 Evaluation Software 2.0, using the 1:1 Langmuir binding model for FcγRIa and FcγRIIIa and the steady state affinity model for FcγRIIa. For FcγRIIb, the binding amount of FcγRIIb per unit amount of antibody was calculated by correcting the binding amount of FcγRIIb obtained from the sensorgram obtained by the measurement with the amount of antibody captured onto the chip surface.
(§2) “Relative value to KD between G1m and hFcRn” and “Relative value to KD between G1m and hFcγRs” are values obtained by dividing the KD value of 04H1637-G1m/04L1610-lam1 for hFcRn and for each FcγR by the KD value of each variant, respectively. “Relative binding amount” indicates the value obtained by dividing the binding amount of each variant to FcγRIIb by the binding amount of 04H1637-G1m/04L1610-lam1. […] It was shown that all of the generated heterodimerized antibodies had enhanced binding to FcγRIIa and FcγRIIIa as compared with 04H1637-G1m/04L1610-lam1 which has the constant region of native human IgG1.

[2] = molecular target: T2, human FcγRIIa, type H, extracellular domain, His-tagged (human, UniProt P12318 34-217); assay: as above
T2 construct: extracellular domain; also called hFcγR IIa H
T2 sequence (looked up): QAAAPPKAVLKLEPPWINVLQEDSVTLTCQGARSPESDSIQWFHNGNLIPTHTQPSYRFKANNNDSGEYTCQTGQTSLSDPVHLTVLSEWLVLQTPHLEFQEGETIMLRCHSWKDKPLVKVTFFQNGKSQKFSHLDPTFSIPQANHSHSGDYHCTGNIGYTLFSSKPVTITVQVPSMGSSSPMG
Description: as §1, §2

[3] = molecular target: T3, human FcγRIIIa, allotype V158, extracellular domain, His-tagged (human, UniProt P08637 17-208); assay: as above
T3 construct: extracellular domain; also called hFcγR IIIa V
Description: as §1, §2

[4] = molecular target: T4, human FcγRIIa, type R, extracellular domain, His-tagged (human, UniProt P12318 34-217); assay: as above
T4 construct: extracellular domain; also called hFcγR IIa R
T4 sequence (looked up): T2 sequence (looked up) with H134R
Description: as §1, §2

[5] = molecular target: T5, human FcγRIIIa, allotype F158, extracellular domain, His-tagged (human, UniProt P08637 17-208); assay: as above
T5 construct: extracellular domain; also called hFcγR IIIa F
Description: as §1, §2

human FcRn = molecular target: T6, human FcRn (human, UniProt P55899 24-290; P61769 21-119); assay: KD of 04H1637-G1m/04L1610-lam1 divided by KD of this antibody; SPR pH 6.0
T6 construct: Prepared by the method of WO 2010/107110; also called hFcRn
Description: The interaction between the generated antibodies and human FcRn was analyzed by the following method using Biacore T200. 50 mM Na-Phosphate, 150 mM NaCl, 0.05% Tween20 (pH 6.0) was used as the running buffer, and the assay was performed at 25° C. For the sensor chip, Series S SA (GE Healthcare) chips onto which CaptureSelect Human Fab-lambda Kinetics Biotin Conjugate (Thermo Fisher Scientific) was immobilized were used. The antibodies of interest were captured onto these chips and FcRn diluted in the running buffer was allowed to interact with them. Chips were regenerated with 10 mM Glycine-HCl (pH 1.5) and 25 mM NaOH, and assay was performed by repeatedly capturing antibodies. The dissociation constant for FcRn of each antibody was calculated using the steady state model, using Biacore T200 Evaluation Software 2.0.
“Relative value to KD between G1m and hFcRn” and “Relative value to KD between G1m and hFcγRs” are values obtained by dividing the KD value of 04H1637-G1m/04L1610-lam1 for hFcRn and for each FcγR by the KD value of each variant, respectively. “Relative binding amount” indicates the value obtained by dividing the binding amount of each variant to FcγRIIb by the binding amount of 04H1637-G1m/04L1610-lam1. […] It was shown that all of the generated heterodimerized antibodies had enhanced binding to FcγRIIa and FcγRIIIa as compared with 04H1637-G1m/04L1610-lam1 which has the constant region of native human IgG1. Furthermore, 04H1637-Kn462/04L1610-lam1//04H1637-H1441/04L1610-lam1, 04H1637-Kn462/04L1610-lam1//04H1637-H1445/04L1610-lam1, and 04H1637-Kn461/04L1610-lam1//04H1637-H1443/04L1610-lam1 were all shown to have enhanced binding to FcγRIIa compared to 04H1637-Kn125/04L1610-lam1//04H1637-H1076/04L1610-lam 1 which has the Fc region variant reported in WO 2013/002362.

[6] = molecular target: T7, human FcγRIIb extracellular domain, His-tagged (human, UniProt P31994 43-217); assay: binding amount of this antibody divided by that of 04H1637-G1m/04L1610-lam1; SPR pH 7.4
T7 construct: extracellular domain; also called hFcγR IIb
T7 sequence (looked up): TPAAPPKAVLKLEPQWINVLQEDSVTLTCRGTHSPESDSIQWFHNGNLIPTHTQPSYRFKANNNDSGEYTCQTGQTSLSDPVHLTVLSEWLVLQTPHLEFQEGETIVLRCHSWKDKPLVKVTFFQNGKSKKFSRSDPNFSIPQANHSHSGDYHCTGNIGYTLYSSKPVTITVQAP
Description: as §1, §2

[7] = molecular target: T7, human FcγRIIb extracellular domain, …; assay: SPR Biacore T200, 25C, pH 7.4; FcγRIIb at 1000 nM, corrected by captured antibody
Description: as §1

T1 sequence (P12314 16-292): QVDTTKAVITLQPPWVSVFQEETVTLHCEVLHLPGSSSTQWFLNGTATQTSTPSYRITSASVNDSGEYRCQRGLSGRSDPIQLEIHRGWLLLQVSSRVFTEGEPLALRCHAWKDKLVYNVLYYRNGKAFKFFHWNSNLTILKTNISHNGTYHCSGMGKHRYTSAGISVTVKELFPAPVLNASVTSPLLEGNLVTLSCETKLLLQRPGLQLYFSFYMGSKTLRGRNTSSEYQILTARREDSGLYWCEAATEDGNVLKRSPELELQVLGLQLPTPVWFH
T5 sequence (P08637 17-208): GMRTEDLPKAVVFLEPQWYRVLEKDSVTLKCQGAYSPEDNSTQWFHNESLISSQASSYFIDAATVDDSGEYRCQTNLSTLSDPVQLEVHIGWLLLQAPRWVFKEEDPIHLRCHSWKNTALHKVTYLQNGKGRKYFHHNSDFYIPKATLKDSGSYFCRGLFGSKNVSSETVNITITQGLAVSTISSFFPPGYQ
T3 sequence (P08637 17-208 F176V): as the sequence (P08637 17-208) above, with F160V counted along it
T6 sequence (P55899 24-290 limits assumed, chain 1 of 2): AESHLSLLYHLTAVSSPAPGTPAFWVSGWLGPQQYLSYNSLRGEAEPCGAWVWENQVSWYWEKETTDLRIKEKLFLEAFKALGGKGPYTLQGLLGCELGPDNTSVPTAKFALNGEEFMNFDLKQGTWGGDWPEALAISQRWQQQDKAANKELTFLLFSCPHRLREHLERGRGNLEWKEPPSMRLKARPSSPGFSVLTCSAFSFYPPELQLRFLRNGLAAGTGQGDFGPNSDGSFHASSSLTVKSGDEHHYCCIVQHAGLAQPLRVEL
T6 sequence (P61769 21-119 limits assumed, chain 2 of 2): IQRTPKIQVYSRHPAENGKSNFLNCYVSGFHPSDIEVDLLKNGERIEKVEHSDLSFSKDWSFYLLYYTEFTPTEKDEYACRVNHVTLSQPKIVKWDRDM

Row | Binder | Relative value to KD between G1m and hFcγRs [1] | Relative value to KD between G1m and hFcγRs [2] | Relative value to KD between G1m and hFcγRs [3] | Relative value to KD between G1m and hFcγRs [4] | Relative value to KD between G1m and hFcγRs [5] | Relative value to KD between G1m and hFcRn (human FcRn) | Relative binding amount [6] | Binding amount [7]
1 | B1 | 1 ratio | 1 ratio | 1 ratio | 1 ratio | 1 ratio | 1 ratio | 1 ratio | 0.008 RU per RU of captured antibody
2 | B2 | 1.6 ratio | 13.9 ratio | 110 ratio | 13 ratio | 415 ratio | 0.9 ratio | 3.1 ratio | 0.025 RU per RU of captured antibody
3 | B3 | 1.5 ratio | 7.3 ratio | 156 ratio | 8.4 ratio | 526 ratio | 0.9 ratio | 3.1 ratio | 0.025 RU per RU of captured antibody
4 | B4 | 0.6 ratio | 37.5 ratio | 131 ratio | 18.7 ratio | 382 ratio | – | 3.7 ratio | 0.03 RU per RU of captured antibody
